Target: HFV integrase (HFV IN) (Human foamy virus, UniProt P14350 752-1143)
Assay: EMSA; 5 mM Mg2+
Settings: protein: recombinant; chain copies: 4; blunt

B1: U5-HFV duplex (U5B-HFV/U5A-HFV) (dsDNA)
DNA 1: ATACAAAATTCCATGACAAT
DNA 2: ATTGTCATGGAATTTTGTAT
- Kd: 17.3 nM

Source: article PMC3347520, “Relative Comparison of Catalytic Characteristics of Human Foamy Virus and HIV-1 Integrases”
